Experimental data published in the nanobody polyreactivity screen of Harvey et al. (2022).

Assay: yeast display, Sf9 membrane polyspecificity reagent, FACS + sequencing; frameworks hold sequencing errors
Summary of the method: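 A synthetic nanobody library was expressed on Saccharomyces cerevisiae BJ5465 by galactose induction for 36–48 hours. The library was stained for 1 hour at 4 °C with 10% biotinylated, detergent-solubilized Sf9 membrane reagent and enriched with streptavidin microbeads before FACS. Low and high (top ~1%) gates were set on anti-HA fluorescence for expression and streptavidin fluorescence for reagent binding, and each polyreactivity label reflects the gate of origin.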

Row | Sequence | polyreactivity (PSR sort gate)
1 | QVQLVVSGGGLVQAGGSLRLSCAASGFTFIVNAMGWYRQAPGKERELVAAISWNGGSTYYADSVKGRFTISRDNAKNTVYLQMNSLKPEATAVYYCAAVRYNSRGSTTPSEMYYWGQGTQVTVSS | low polyreactivity
2 | QVQLVESVGGLVQAGGSLRLSCAASGSTFKGYYMGWYRQAPGKERELVAAIDSGGSTYYADSVKGRFTISRDNAKNTVYLQMNSLNPVDTAVYYCAATGQDTYGLDVVDEYDYWGQGTKVTVSS | low polyreactivity
3 | QVQLVESGGGLVQAGGSLRLSCAASGRTFFWYAMGWYRQAPGKEREFVAAITWRTGSTYYADSVKGRFTISRDNAKNTVYLQMNSLKPEDTAVYYCAAEYPWSYATYYYWGQGTQVTVSS | high polyreactivity
4 | QVQLEESGGGLFQAGGSLRLSCAASGRIFDPYAMGWYRQAPGKERDLVATITLRGGITYYADSVKGRFTISRDNAKNTVYLQMNSLKPEDTAVYYCAKKVRSYVRWEYDYWGQGTQVTVSS | low polyreactivity
5 | QVQLVESCGGLVQAGVSLRLSCAASVFKYAMGRYRQAPGKKRELVAAISSGGITSYADSVKGRFTISRDNAKNTVYLQMNSLKPEDTAVYYCNARLRHSQYAYYYWGQGTQVTLSS | high polyreactivity
6 | QVQLVESGGGVVQAGGSLRLSCAATGRTFWRYAMGGYIQAPGKERELVASISVSGGTTYYAYSVKGRFTISRDHAKNTVYLQMNSLKPEDTAVYYCAARYGSIYSILYYRFVYWGQGTQVTVSS | high polyreactivity
7 | QVQLVESGGGLVQAGGSLLLSCAASGSTLDPNVMGWYRPAPGKERELVAAITSGGSTYYADSVKGRFTISRDNAKNTVYLQMNSLKPEDTAVYYCNKDKGWLAHSRIWLWYDYWGQGTQVTVSS | low polyreactivity
8 | QVQLVESGGGLVQAGGSLRLSCAASGIIFRGYFMGWYRQATGKERELVAAISTSGGRTSYADSVKGRFTISRDNAKNTVYLQMNSLKPEDTAVYYCAARPLYSYSHWGYGYWGQGTQVTVSS | high polyreactivity
9 | QVQLVESGGGLVQAGGSLRLSCAASGRIFKTNAMGWYRQAPGKERELVAAISWRGVGTYYADSVKGRFTISRDNAKNTVYLQMNSLKPEDTAVYYCAARWTVPRDTAPSKGYDYWGQGTQVTVSS | low polyreactivity
10 | QVQLVESGGGLVQAGGSLRLSCAASGIIFPAYAMGWYRQEPGKDRELVAAISKRGGSTYYADSVKGRFTISRDNAKNTVYLQMNSLKPEDTAVYYCNVLLTQGATVGEYGYWGQGTQVTVSS | high polyreactivity
11 | QVQLVESGGGLVQAGGSLRLSCAASGRIFKYYAMGWYRQAPGKERELVAAISRGGSTYYADSVKGRFTISRDNAKNTVYLQMNSLKPEDTAVYYCNRLSNNREYDYWGQGTQVTVSS | high polyreactivity
12 | QVQLVESGGGLVQAGGSLRLSCADSGYTFYFYAMGWYRQAPGKESELVAAITGGGTTSYADSVKGRFTISRDNAKNTVYLEMNSLKPEDTAFYYCAAYAYGVWQYQYGGNYWGQGTQVTVSS | low polyreactivity
13 | QVQLVESGGGLVQAGGSLRLSCAASGIIFRPYAMGWYRQAPGKERELVAAITGSGVSTYYADSVKGRFTISRDNAKNTVYLQMNSLKPEDTAVYYCAKRYNRGYHRYDYWGQGTHVTVSS | low polyreactivity
14 | QVQLVESGGGLVQAGGSLRLSCAASGSTFPYYAMGWYRQAPGKERELVATITTSGVSTYYADSVKGRFTISRDNAKNTVYLQMNSLKPEDTAVYYCAADPPGFTQYGYWGQGTQVTVSS | low polyreactivity
15 | QVQLVESGGRLVQAGGSLRLSCAASGSTFTVIGMGWYRQAPGKERELVASITWSGGSTYYADSVKGRFTISRDNAKNTVYLQMTSLIPEDTAVYYCAADEKLYITGYDYWGQGTQVTVSS | low polyreactivity
16 | QVQLVESGGGLVQAGGSLRLSGAASGITIKRYAMGWYRQAPGKEREFVATISQSGTSTYYADSVKGRFTISRDNAQNTVYLQMNSLKPEDTAVYYCAADYIGYWYGYYSWGQGTQVTVSS | low polyreactivity
17 | QFQLVESCGGLVQAGGSLRLSCAASGSIFYYYVMGWYRQAPGKEREFVAAISWRGDSTYYADSVKGRFTISRDNAKNTVYLQMNSLKPEDTAVYYCNADYPWSVVGYDYLGQGTQVTVSS | low polyreactivity
18 | QVQLVESGGGLVQAGGSLRLSCAASGRILKVYAMGGYRQAPGQERELVAAISVNGGRTYYADSVKGRFTISRDNAKNTVYLQMNSLKPEDTAVYYCAIRLYKPGNVFYSVDQSDYWGQGTQVTVSS | low polyreactivity
19 | QVQLVESGGGLVQAGGSLRLSCAASGFTFKTYAMGWYRQAPGKEREFVAAISSRGGSTYYADSVKGRFTISRDNAKNTVYLQMNSLKPEDTAVYYCATATRPRDRYSRYGYWGQGTQVTVSS | high polyreactivity
20 | QVQLVESGGGLVQAGGSLRLSCAASGFTFVSNALGWYRQAPGKETELVADITSDGSTNYADSVKGRFSISRDNAKNTVYLQMNSLKPEDTAVYYCATDQRSHTWVNQFDYWGLGTQVTVSS | low polyreactivity
21 | QVQLVESGGGLVQAGGSLRLSCAASGITFLRYAMGWYRQAPGKERELVATIRTGGTTNYADSVKGRFTISRDNAKNTVYLLMISLKPEDTAVYYCAVDWSRQAHKFNYWGQGTQVTVSS | high polyreactivity

Row | Sequence | polyreactivity (PSR sort gate)
22 | QVQLEESGGGLVQAGGSLRLSCAASGSIFGFYAMGWYRQAPGKERELVAAISQRGGNTYYADSVKGRFTISRDNAKNTVYLQMNSLKPEDTAVYYCATDKHPYKRHWYYTYDYWGQGTQLTVSS | high polyreactivity
23 | QVQLVESGGGLVQAGGSLRLTCAASGRTFYPYAMGWYRPAPGKERELVAAISSGVRTYYADSVKGRFTISRDNAKNTVYLQMNSLKPDDTAVYYCAARRSIWGQGTQVTVSS | high polyreactivity
24 | QVQLVESGGGVVQAGGSLGLSCAASGRIFDVNAMGWYRQAPGKERELVAAITYSDGSTYYADSVKGRFTISRDIAKNTVYLQMNSLKPEDTAVYYCAATQEPVTPQPYGYWGQGTQVTVSS | low polyreactivity
25 | QVQLVESGGGLVQAGGSLRLSCAASGSIFDSNAMGWYRQAPGKERELVADIRGIGGSTYYADSVKGRFTISRDHAKNTVYLQMNSLKPEDTAVYYCNTSTLGGYYWGQGTQVTVSS | low polyreactivity
26 | QVQLVESGGGLVQAGGSLRLSCAASGIIFELYAMGWYRQAPGKERELVAAISNGDSTNYADSVKGRFTISRDNAKNTVYLQMNSLKPEDTAVYYCAARYSTYVRYDYWGQGTQVTVSS | low polyreactivity
27 | QVQLVEAGGGFYQPGGSLRLSCAASGRTFSYYASGWYRQAPGKERELVAAITDSGDSTYYADSVKGRFTISRDNANNTVYLQMKSLKPEDTAVYDCAATTYSWYDYWGQGTQVTVSS | high polyreactivity
28 | QVQLVESGGGLVQAGGSLRLSCAASGFIYPRNTMGWYRQAPGKERELVAAITWIGGRTYYADSVKGRFTISRDNAKNTVYLQMNSLKPEDTAVYYCAADYSVFYDEDYWGQGTQVTVSS | low polyreactivity
29 | QVQLVESGGGLVQAGGSLRLSCAASGIIFYRNAMGWYRQAPGKERELVAGITSGGSTYYADSVKGRFTISRDNAKNTVYLQMNSLIPEDTAVYYCAAYYRASQRYLQYGYWGQGTQVNVSS | high polyreactivity
30 | QVQLVESGGGLVQAGGSLRLSCAASGSIFVVNAMGWYRPAPGKERELVAAINWSDGSTYYADSVKGRFTISRDTAKNTVYLQLTSLKPEDTAVDYCAAEVPYFYFEGWNYDYWGQGTQVTVSS | high polyreactivity
31 | QVQLVESGGALVQAGCSLRLSCAASGRTFGRNTMGWYRQAPGKERELVAGISRSAGRTYYADSVKGRFTISRDNAKNNVYLQMNSLKAEDTAVYYCAARYQGNYRTDKYDYWGQGTQVTVSS | high polyreactivity
32 | QVQLVESGGGIVQAGGSLRLSCAASGSTFATYTMGWYRQAPGKERELVAAISSRGGSTYYADSVKGRFTISRDNAKNTVYLQMNSLKPEDTAVYYCNARRSTDPARYYWGQGSQVTVSS | high polyreactivity
33 | QVQLVESGGGLVQAGGSLRLSCAASGFTFARNAMGWYRQAPGKERELVAAINRSGGSTYYADSVKGRFTISRDNAKNTVYLQMNSLKPEDTAVYYCNKPRLAQQGYDYWGQGTQVTVSS | high polyreactivity
34 | QVQLVESGGGLVQAGGSLRLSCAASGIILRRYAMGWYRQPPGKERELVAAISSRGGSTYYADSVKGRFTISRDNAKNTVYLQMNSLKPEDTAVYYCAAEDYWYDFDYWGQGTQVTVSS | high polyreactivity
35 | QVQIVESGGGLVQAGGSLRLSCAASGSTFPTNAMGWYRQAPGKERELVAAITSTGSTYADSVKGRFTISRDNAKNTVYLQMNSLKPEDTAVYYCAADTQWTTPYDYWGQGTQVTVSS | low polyreactivity
36 | QVQLVESGGGLVQAGGSLRLSSAASGRIFSINAMGWYSQAPGKERELVATISWRGGSTYYADSVKGRFTISRDNAKNTVYLQMNSLKPEDTAVYYCAAKYPYYSSYAYGYWGQGTQVTVSS | high polyreactivity
37 | QVQLVESGGGLVQAGGSLRLSCAASGRTFTRYAMGWYRQAPGKERELVAAISGGGGSTYYADSVKGRFTISRDNAKNTVYLQMNSLKPEDTAVYYCAADVTYGTKWAYDYWGQGTQVTVSS | high polyreactivity
38 | QVQLVESGGGLVQAGGSLRLSCAASGRIFKYYAMGWFRQAPGKERELVAAISSGSSTNYADSVKGRFTISRDTAKNTVYLQMNSLKPEDTAVYYCAAKYYRSKFDFWGQGTQVTVSS | high polyreactivity
39 | QVQLVESGGGLVQAGGSLRLSCAASGSIFNSYAMGWYRQAPGKERELVAAITRSDGSTYYADSVKGRFTISRDKAKNTVYLQMNSLKPEDTAVYYCAKGVGGYIYSEYDYWGQGTQVTVSS | low polyreactivity
40 | QVQLVESGGGLVQAGGSLRLSCAASGSTFVTNAMGWYRQAPGTEREFVAAISWISTSTYYADSVKGRFTISRDNAKNTVYLQMNSLKPEDTAVYYCNATTFAFSPSLKGAYGYWGQGTQVTVSS | low polyreactivity
41 | QVQLVETGGGLVQAGGSLRLSCAASGFTFFYYDMGWYRQAPGKERELVADITTGGSTNYADSVKGRFTISRDNAKNTVYFQMNSLKTEDTAVYYCAAATTYPYGYYYWGQGTEVTVSS | high polyreactivity
